Assay results reported in US20080008719A1 (Alexion, published 2008).
Numbering of substitutions follows the chain as printed.

B1: Fab 23E9 (Fab, V domains shown)
VH: EVELQQSGAELVKPGASVKLSCKASGYTFTNYYMHWVKQRPGQGLEWIGEINPSSGGTNFNEKFKSKATLTVDKSSSTAYMQLSSLTSEDSAVYYCTRFDRTENGMDYWGQGTSVTVSS
VL: DNVLTQSPASLAVSPGQRATISCKASQSVDYDGDNYMNWYQQKPGQPPKLLIYAASNLESGIPARFSGSGSGTDFTLNIHPVEEEDAATYFCQQSDEDPYTFGGGTKLEIKR
B2: Fab 61E10 (Fab, V domains shown)
VH: B1 VH with E3Q, M106L
VL: B1 VL with N2I, L4M, P15L, F91Y, D96N, E97G, Y100W
B3: Fab 84H7 (Fab, V domains shown)
VH: EVQLQQSGAVLLKPGASVKLSCTASGFNIKDTYIHWMKQRPEQGLEWIGRIDPADGNTKYDPKFQGKATITADTSSNTAYLQLSSLTSEDTAVYYCTTAFYYSMDYWGQGTSVTVSS
VL: DIVLTQSQKFMSTSVGDRVSVTCKASQNVGTNVAWYQQKPGQSPKALIYSASYRYSGVPDRFTGSGSGTDFTLTISNVQSEDLAEYFCQQYNSYPRTFGGGTKLEIKR
notes: also called 84H7 (63C10)
B4: Fab 36C1 (Fab, V domains shown)
VH: B3 VH with V10E, L12V, K38N, G66D, Q82H
VL: B3 VL with L4M, K39T, S76N, K103T
B5: Fab 25A11 (murine Fab) (Fab, V domains shown)
VH: EVQLQQPGAELVKPGASVKMSCKASGYTFTSYYMYWVKQRPGQGLEWIGEINPSHGGTNFNEKFKNKATLTVDKSSSTVYMQLSSLTSEDSAVYYCTRGGNYPYFAMDYWGQGTSVTVSS
VL: DIQMTQTTSSLSASLGDRVTISCRASQDISNYLNWYQQKPDGTVKLLIYYTSRLHSGVPSRFSGSGSGTDYSLTISNLEQEDIATYFCQQGNTLPWTFGGGTKLEIKR

What was measured:
Integrin alpha3/beta1 = molecular target: T1, Integrin alpha3/beta1 (human, UniProt P26006 33-1051; P05556 21-798); experiment: immunoprecipitation from PC-3 membrane lysate with biotinylated Fab, mass spectrometry
T1 construct: also called α3β1
Protocol: PC-3 cell membranes (10⁸ cell equivalents/mL) in Nonidet P-40 Lysis Buffer (1% Nonidet P-40, 50 mM Tris.HCl pH 7.5, 0.15 M NaCl, 10% glycerol plus Complete Protease Inhibitors) were incubated with 50 μg/mL chicken egg white avidin for 30 min on ice. Insoluble material was removed by centrifugation for 30 min at 150,000 g. The lysate was precleared with normal rabbit serum and protein G Sepharose beads (Amersham-Pharmacia, Piscataway, N.J.). Antigens were captured by adding biotinylated Fabs (10 μg/mL) to the lysate and incubating overnight at 4° C. Immobilized streptavidin was added (50 μL of packed beads per mL) for 3 h at 4° C. with gentle mixing, followed by five washes with Nonidet P-40 Lysis Buffer. After SDS-PAGE separation, antigen bands were cut from the gel.

[1] = molecular target: CUB-domain-containing protein 1 (CDCP1) (human) (UniProt Q9H5V8); experiment: flow cytometry on PC-3 cells

T1 sequence (P26006 33-1051 limits assumed, chain 1 of 2): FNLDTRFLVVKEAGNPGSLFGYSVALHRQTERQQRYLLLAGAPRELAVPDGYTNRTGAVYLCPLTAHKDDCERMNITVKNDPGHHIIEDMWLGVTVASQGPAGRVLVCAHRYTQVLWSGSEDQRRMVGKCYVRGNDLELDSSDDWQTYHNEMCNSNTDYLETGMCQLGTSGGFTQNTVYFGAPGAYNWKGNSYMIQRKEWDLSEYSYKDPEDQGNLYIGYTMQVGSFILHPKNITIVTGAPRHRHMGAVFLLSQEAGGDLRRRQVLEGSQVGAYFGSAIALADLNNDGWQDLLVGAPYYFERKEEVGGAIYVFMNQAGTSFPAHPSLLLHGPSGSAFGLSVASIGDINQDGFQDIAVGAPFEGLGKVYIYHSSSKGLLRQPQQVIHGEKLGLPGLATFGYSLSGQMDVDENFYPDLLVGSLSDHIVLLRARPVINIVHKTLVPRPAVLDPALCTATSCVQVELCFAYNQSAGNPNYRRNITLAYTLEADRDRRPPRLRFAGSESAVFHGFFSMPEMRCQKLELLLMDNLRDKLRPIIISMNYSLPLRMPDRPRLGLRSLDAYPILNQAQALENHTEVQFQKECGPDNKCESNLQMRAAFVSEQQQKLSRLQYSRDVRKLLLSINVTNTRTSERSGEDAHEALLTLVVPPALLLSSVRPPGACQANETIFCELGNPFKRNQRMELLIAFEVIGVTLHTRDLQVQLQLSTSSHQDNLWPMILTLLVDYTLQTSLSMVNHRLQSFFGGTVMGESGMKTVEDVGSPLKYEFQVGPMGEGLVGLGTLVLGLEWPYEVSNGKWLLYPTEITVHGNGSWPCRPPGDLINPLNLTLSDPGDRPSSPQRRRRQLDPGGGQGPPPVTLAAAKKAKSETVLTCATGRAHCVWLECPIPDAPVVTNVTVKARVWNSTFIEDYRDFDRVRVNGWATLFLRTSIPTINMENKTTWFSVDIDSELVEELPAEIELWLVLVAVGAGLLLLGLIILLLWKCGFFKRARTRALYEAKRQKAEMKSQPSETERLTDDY
T1 sequence (P05556 21-798 limits assumed, chain 2 of 2): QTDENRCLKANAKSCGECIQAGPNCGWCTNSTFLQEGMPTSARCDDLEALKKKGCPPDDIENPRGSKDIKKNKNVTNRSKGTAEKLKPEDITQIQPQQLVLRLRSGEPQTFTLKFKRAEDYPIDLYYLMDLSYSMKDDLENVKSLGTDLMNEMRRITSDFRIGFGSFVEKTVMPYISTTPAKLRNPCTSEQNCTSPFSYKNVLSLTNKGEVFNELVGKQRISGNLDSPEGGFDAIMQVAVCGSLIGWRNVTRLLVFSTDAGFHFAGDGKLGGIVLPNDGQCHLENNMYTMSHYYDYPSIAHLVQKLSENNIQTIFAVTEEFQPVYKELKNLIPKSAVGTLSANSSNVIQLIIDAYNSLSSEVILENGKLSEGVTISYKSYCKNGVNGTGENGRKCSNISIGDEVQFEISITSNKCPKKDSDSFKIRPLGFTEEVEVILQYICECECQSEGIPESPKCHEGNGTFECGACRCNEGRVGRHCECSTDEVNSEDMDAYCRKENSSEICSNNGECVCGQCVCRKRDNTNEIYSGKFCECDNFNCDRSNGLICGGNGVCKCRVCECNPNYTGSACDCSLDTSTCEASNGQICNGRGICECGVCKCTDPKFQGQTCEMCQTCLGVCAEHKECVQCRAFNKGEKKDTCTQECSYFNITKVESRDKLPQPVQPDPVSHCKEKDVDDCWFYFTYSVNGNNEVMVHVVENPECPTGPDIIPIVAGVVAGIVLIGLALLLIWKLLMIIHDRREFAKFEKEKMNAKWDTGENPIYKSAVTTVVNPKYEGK

Binder | binding result (Integrin alpha3/beta1) | percent saturation of PC-3 cells at 160 nM Fab [1] [%]
B1 | binds | 
B2 | binds | 
B3 | binds | 
B4 | binds | 
B5 |  | 80
